Source: article PMC9951844

What was measured:
[1] = biological target: SARS-CoV-2 Omicron BA.1 spike antigen of the SPR column (construct not stated) (SARS-CoV-2); experiment: SPR
[2] = biological target: SARS-CoV-2 Delta spike antigen of the SPR column (construct not stated) (SARS-CoV-2); experiment: SPR

B1: YB9-258 (antibody, V domains shown)
VH: EVQLVESGGGLIQPGGSLRLSCAASGLTVSSNYMHWVRQAPGKGLEWVSVLYAGGSAFYADSVKGRFTISRNNSKNTLYLQMNSLRAEDTAIYYCARGLGDYLDSWGQGTLVTVSS
VL: DIQMTQSPSSVSASVGDRVTITCRASQGIGSWLAWYQQKPGKAPQLLIYAASTLQSGVPPRFSGSGSGTDFTLTITSLQPEDFASYYCQQANSVLALTFGGGTKVEIK
Binder B1 has a Kd [1] of 6.06 nM and a Kd [2] of 0.00391 nM.
